Experimental data reported in the supplement of paper PMC7877785.
± gives the uncertainty stated by the source.

Experiment: self-splicing fitness, log relative to wild type (ln ratio); higher = more splicing; Tetrahymena group I intron in knt gene, E. coli kanamycin selection, DiMSum; sequences stand for … in CUCUCU…GGAGGGAAAAGUUAUCAGGCAUGCACCUGGUAGCUAGUCUUUAAACCAAUAGAUUGCAUCGGUUUAAAAGGCAAGACCGUCAAAUUGCGGGAAAGGGGUCAACAGCCGUUCAGUACCAAGUCUCAGGGGAAACUUUGAGAUGGCCUUGCAAAGGGUAUGGUAAUAAGCUGACGGACAUGGUCCUAACCACGCAGCCAAGUCCUAAGUCAACAGAUCUUCUGUUGAUAUGGAUGCAGUUCACAGACUAAAUGUCGGUCGGGGAAGAUGUAUUCUUCUCAUAAGAUAUAGUCGGACCUCUCCUUAAUGGGAGCUAGCGGAUGAAGUGAUGCAACACUGGAGCCGCUGGGAACUAAUUUGUAUGCGAAAGUAUAUUGAUUAGUUUUGGAGUACUCGUGGUCG
Method in brief: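 Library with all eight P1ex-region intron nucleotides randomised, intron inside the knt kanamycin-resistance gene on pET-22b(+), in E. coli BL21(DE3). Cells grew overnight at 37°C or 30°C on LB agar with or without 25 μg/mL kanamycin (plus 100 μg/mL carbenicillin, 50 μM IPTG, 0.2% rhamnose), in six replicate transformations. Pooled colonies were amplicon-sequenced on Illumina HiSeq 2500. DiMSum fitness is the error-weighted combination of wild-type-normalised replicate fold changes, kanamycin versus none.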

Sequence | self-splicing fitness (ln) (30 °C) | self-splicing fitness (ln) (37 °C)
AUUGAGCAAUAUUACGGUCG | -2.92 ± 0.36 | -2.52 ± 0.45
AUUGAGCAAUAUUACGGUGG | -3.84 ± 0.46 | -1.27 ± 0.15
AUUGAGCAAUAUUACGUAAA | -1.7 ± 0.15 | -2.91 ± 0.34
AUUGAGCAAUAUUACGUCCU | -2.41 ± 0.19 | -0.811 ± 0.15
AUUGAGCAAUAUUACGUCUG | -3.22 ± 0.21 | -3 ± 0.26
AUUGAGCAAUAUUACGUUGU | -3.5 ± 0.14 | -2.1 ± 0.16
AUUUAGCAAUAUUACGAAGC | -2.88 ± 0.23 | -3.6 ± 0.46
AUUUAGCAAUAUUACGAGCA | -1.66 ± 0.25 | -1.01 ± 0.18
AUUUAGCAAUAUUACGAUAU | -1.34 ± 0.097 | -0.998 ± 0.11
AUUUAGCAAUAUUACGAUGC | -1.98 ± 0.23 | -0.497 ± 0.21
AUUUAGCAAUAUUACGCAUA | -2.26 ± 0.12 | -1.18 ± 0.12
AUUUAGCAAUAUUACGCGAC | -2.16 ± 0.27 | -2.87 ± 0.47
AUUUAGCAAUAUUACGGCAU | -0.0305 ± 0.11 | -0.15 ± 0.18
AUUUAGCAAUAUUACGGGGU | -3.47 ± 0.26 | -2.32 ± 0.19
AUUUAGCAAUAUUACGGUAC |  | -1.07 ± 0.33
AUUUAGCAAUAUUACGGUAG | -3.72 ± 0.27 | -2.03 ± 0.21
AUUUAGCAAUAUUACGUCGU | -1.7 ± 0.11 | -1.33 ± 0.1
AUUUAGCAAUAUUACGUGCU | -2.78 ± 0.11 | -0.856 ± 0.1
AUUUAGCAAUAUUACGUUAC | -2.76 ± 0.33 | -2 ± 0.27
AUUUAGCAAUAUUACGUUAU | -2.2 ± 0.2 | -1.95 ± 0.24
CAAAAGCAAUAUUACGAAUA | -2.77 ± 0.16 | -1.5 ± 0.15
CAAAAGCAAUAUUACGAGGC | -4.77 ± 0.39 | -2.34 ± 0.18
CAAAAGCAAUAUUACGAGUA | -3.32 ± 0.14 | -1.89 ± 0.11
CAAAAGCAAUAUUACGAGUG | -0.995 ± 0.058 | -0.101 ± 0.075
CAAAAGCAAUAUUACGAUAC | -2.95 ± 0.15 | -2.53 ± 0.2

Sequence | self-splicing fitness (ln) (30 °C) | self-splicing fitness (ln) (37 °C)
CAAAAGCAAUAUUACGCAAU | -4.03 ± 0.3 | -1.93 ± 0.24
CAAAAGCAAUAUUACGCCUA | -2.75 ± 0.27 | -1.51 ± 0.17
CAAAAGCAAUAUUACGCGCG | -0.71 ± 0.082 | -0.59 ± 0.09
CAAAAGCAAUAUUACGCGUA | -2.01 ± 0.12 | -1.32 ± 0.11
CAAAAGCAAUAUUACGCUCC | -2.23 ± 0.22 | -1.99 ± 0.29
CAAAAGCAAUAUUACGCUCU | -1.6 ± 0.12 | -1.63 ± 0.16
CAAAAGCAAUAUUACGGAAA | -2.67 ± 0.5 | -2.08 ± 0.3
CAAAAGCAAUAUUACGGAAC | -2.55 ± 0.15 | -2.87 ± 0.27
CAAAAGCAAUAUUACGGACU | -2.38 ± 0.12 | -1.46 ± 0.12
CAAAAGCAAUAUUACGGUCC | -3.68 ± 0.29 | -1.88 ± 0.21
CAAAAGCAAUAUUACGGUCG | 0.0608 ± 0.056 | -0.107 ± 0.063
CAAAAGCAAUAUUACGGUCU | -3.38 ± 0.13 | -1.1 ± 0.086
CAAAAGCAAUAUUACGGUGA | -1.57 ± 0.096 | -1.62 ± 0.1
CAAAAGCAAUAUUACGUAGA | -1.88 ± 0.078 | -1.97 ± 0.12
CAAAAGCAAUAUUACGUCCU | -2.18 ± 0.087 | -0.725 ± 0.09
CAAAAGCAAUAUUACGUCUA | -1.75 ± 0.097 | -0.725 ± 0.083
CAAAAGCAAUAUUACGUCUC | -3.38 ± 0.23 | -2.15 ± 0.2
CAAAAGCAAUAUUACGUGUC | -3.51 ± 0.14 | -1.41 ± 0.12
CAACAGCAAUAUUACGAGAA | -2.7 ± 0.39 | -0.546 ± 0.21
CAACAGCAAUAUUACGAUGU | -2.57 ± 0.11 | -1.62 ± 0.11
CAACAGCAAUAUUACGCAAG | -1.48 ± 0.07 | -0.352 ± 0.085
CAACAGCAAUAUUACGCCCC |  | -0.283 ± 0.4
CAACAGCAAUAUUACGCGCC | -1.54 ± 0.073 | -1.43 ± 0.11
CAACAGCAAUAUUACGCUAC | -4.32 ± 0.24 | -2.3 ± 0.15
CAACAGCAAUAUUACGCUAU | -3.29 ± 0.17 | -2.25 ± 0.13

Sequence | self-splicing fitness (ln) (30 °C) | self-splicing fitness (ln) (37 °C)
CAACAGCAAUAUUACGGUCC | -2.56 ± 0.17 | -1.22 ± 0.16
CAACAGCAAUAUUACGUACC | -2.7 ± 0.12 | -0.824 ± 0.12
CAACAGCAAUAUUACGUAUC | -1.96 ± 0.16 | -2.75 ± 0.18
CAACAGCAAUAUUACGUGCG | -0.886 ± 0.053 | -0.129 ± 0.074
CAACAGCAAUAUUACGUGUU | -3.54 ± 0.11 | -3.03 ± 0.15
CAAGAGCAAUAUUACGAAUG | -2.34 ± 0.09 | -1.79 ± 0.14
CAAGAGCAAUAUUACGACAA | -0.348 ± 0.28 | -1.43 ± 0.39
CAAGAGCAAUAUUACGAGCG | -0.536 ± 0.07 | -0.728 ± 0.073
CAAGAGCAAUAUUACGAGCU | -2.04 ± 0.28 | -2.06 ± 0.37
CAAGAGCAAUAUUACGAGUC | -2.88 ± 0.28 | -0.209 ± 0.28
CAAGAGCAAUAUUACGCCAA | -3.78 ± 0.4 | -2.68 ± 0.3
CAAGAGCAAUAUUACGCCGC | -2.67 ± 0.25 | -1.99 ± 0.26
CAAGAGCAAUAUUACGCCGG | -2 ± 0.15 | -1.35 ± 0.24
CAAGAGCAAUAUUACGCCUC | -1.95 ± 0.33 | 
CAAGAGCAAUAUUACGCGAG | -2.92 ± 0.2 | -2.11 ± 0.21
CAAGAGCAAUAUUACGCUCC | -2.23 ± 0.44 | 
CAAGAGCAAUAUUACGCUUA | -2.23 ± 0.17 | -0.92 ± 0.15
CAAGAGCAAUAUUACGGAGG | -1.85 ± 0.083 | -1.3 ± 0.13
CAAGAGCAAUAUUACGGGCC |  | -2.71 ± 0.31
CAAGAGCAAUAUUACGGGCU |  | -2.6 ± 0.34
CAAGAGCAAUAUUACGGUUA | -2.21 ± 0.15 | -2.08 ± 0.18
CAAGAGCAAUAUUACGGUUG | -2.72 ± 0.12 | -2.25 ± 0.18
CAAGAGCAAUAUUACGUACA | -3.1 ± 0.35 | -1.89 ± 0.26
CAAGAGCAAUAUUACGUGUA | -3.48 ± 0.17 | -2.42 ± 0.17
CAAUAGCAAUAUUACGAAUU | -3.51 ± 0.26 | -2.23 ± 0.18

Sequence | self-splicing fitness (ln) (30 °C) | self-splicing fitness (ln) (37 °C)
CAAUAGCAAUAUUACGACCA |  | -1.81 ± 0.41
CAAUAGCAAUAUUACGACCG | -0.173 ± 0.12 | 0.201 ± 0.18
CAAUAGCAAUAUUACGACGG | -0.109 ± 0.076 | 0.524 ± 0.1
CAAUAGCAAUAUUACGACUU | -3.35 ± 0.24 | -0.264 ± 0.23
CAAUAGCAAUAUUACGAGAA | -3.83 ± 0.39 | -2.71 ± 0.3
CAAUAGCAAUAUUACGAGGA | -2.82 ± 0.26 | -2.07 ± 0.27
CAAUAGCAAUAUUACGAUAC | -3.17 ± 0.19 | -2.41 ± 0.16
CAAUAGCAAUAUUACGAUCG | 0.123 ± 0.069 | -0.0654 ± 0.083
CAAUAGCAAUAUUACGAUUC | -3.4 ± 0.14 | -1.24 ± 0.14
CAAUAGCAAUAUUACGCAUC |  | -2.7 ± 0.35
CAAUAGCAAUAUUACGCCGC | -2.12 ± 0.22 | -2.72 ± 0.4
CAAUAGCAAUAUUACGCCGU | -3.47 ± 0.15 | -1.4 ± 0.14
CAAUAGCAAUAUUACGCCUA | -2.01 ± 0.22 | -1.74 ± 0.18
CAAUAGCAAUAUUACGCCUC | -3.74 ± 0.48 | -2.17 ± 0.36
CAAUAGCAAUAUUACGCGAA | -3.11 ± 0.21 | -1.67 ± 0.15
CAAUAGCAAUAUUACGCUGC | -3.49 ± 0.28 | -1.92 ± 0.33
CAAUAGCAAUAUUACGCUGU | -3.13 ± 0.17 | -2.07 ± 0.15
CAAUAGCAAUAUUACGCUUG | -2.63 ± 0.14 | -2.01 ± 0.16
CAAUAGCAAUAUUACGGAAU | -3.67 ± 0.35 | -3.11 ± 0.33
CAAUAGCAAUAUUACGGGUG | -0.693 ± 0.068 | 0.0252 ± 0.091
CAAUAGCAAUAUUACGGUCA | -3.09 ± 0.18 | -1.55 ± 0.12
CAAUAGCAAUAUUACGUAAG | 0.0257 ± 0.049 | 0.121 ± 0.062
